From paper PMC13544220, “Glycemic and bodyweight effects of GIPR coding variation reflect differences in surface expression and intrinsic functional impairment” (Science Advances, 2026)

Columns and labels:
Assay type in all cases: cell-based, human
[1] = test system: wild-type and variant SNAP-GIPR; assay: Surface SNAP-GIPR expression (SNAP-tag labelling) in AD293 cells; details: for AD293 Surface: Fig S3E, mean; for Surface SNAP-GIPR expression: sheet Fig 1C;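 on all read-outs here: scaled to the experimental average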
How it was run: (§1)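 Read-out: whole-cell fluorescence of surface-only SNAP label (Alexa Fluor 647, 500 nM, 10 min, RT), wide-field 20X, several FOVs per well. Flat-field corrected, phase-contrast masked, nontransfected-well signal subtracted; normalized to experiment mean or wild-type.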

[2] = test system: wild-type and variant SNAP-GIPR; assay: Surface SNAP-GIPR expression (SNAP-tag labelling) in INS-1 cells; details: Fig 4G; Mean
How it was run: as §1

[3] = test system: wild-type and variant SNAP-GIPR; assay: Single-concentration GIP cAMP response by HTRF in AD293 cells; details: Fig S3F, HTRF, mean;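 further: ratio to experiment-wide average response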
Description: (§2) All variants were tested in parallel on each occasion to control for transfection efficiency differences between experiments.

[4] = test system: wild-type and variant SNAP-GIPR; assay: Single-concentration GIP cAMP response by HTRF in INS-1 cells; details: Fig S3E, mean
Description: as §2

[5] = test system: wild-type and variant SNAP-GIPR; assay: cADDis cAMP imaging in AD293 cells, ensemble, expression-matched and per decile; details: Fig S3F, cADDis, mean;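 further: Ensemble cells as % of IBMX/FSK response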
How it was run: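 AD293 cells were transfected with SNAP-GIPR constructs and cotransduced with the cADDis Green Up cAMP sensor, then labeled after 24 h with 500 nM SNAP-Surface Alexa Fluor 647. Per-cell cADDis intensity was tracked at 37°C in KRBH with 6 mM glucose and 0.1% BSA.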

[6] = test system: wild-type and variant SNAP-GIPR; assay: Constitutive and agonist-mediated internalization, reversible SNAP-tag labelling, AD293 cells; set-up: key to Internalisation, Vehicle / Internalisation, +GIP / Internalisation, GIP-only: % internalization: residual fluorescence after Mesna vs pre-Mesna; Surface expression: unit not given here; details: Mean; for +GIP internalisation (100 nM) / GIP-specific internalisation (100 nM) / Constitutive internalisation (100 nM) / Surface expression: Fig 4E; for +GIP internalisation (100 nM) / GIP-specific internalisation (100 nM): GIP 100 nM; for Internalisation, +GIP / Internalisation, GIP-only / Internalisation, Vehicle: Fig S4C, AD293
How it was run: (§3)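 Percentage internalization is read as the fraction of specific SNAP fluorescence that survives Mesna stripping, compared with the image taken before Mesna. Wells are imaged in TNE buffer at pH 8.6 and again after 10 min.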

[7] = test system: wild-type and variant SNAP-GIPR; assay: Constitutive and agonist-mediated internalization, reversible SNAP-tag labelling, INS-1 cells; set-up: key to Internalisation, GIP-only / Internalisation, Vehicle / Internalisation, +GIP: % internalization: residual fluorescence after Mesna vs pre-Mesna; details: Mean; for +GIP internalisation (100 nM) / GIP-specific internalisation (100 nM) / Constitutive internalisation (100 nM): Fig 4G; for +GIP internalisation (100 nM) / GIP-specific internalisation (100 nM): GIP 100 nM; for Internalisation, +GIP / Internalisation, GIP-only / Internalisation, Vehicle: Fig S4C, INS-1
How it was run: as §3

[8] = column repeated, paired with cAMP 100 nM

B1: R336P (protein, UniProt P48546 22-466, looked up, variant R336P)
Gastric inhibitory …: RAETGSKGQTAGELYQRWERYRRECQETLAAAEPPSGLACNGSFDMYVCWDYAAPNATARASCPWYLPWHHHVAAGFVLRQCGSDGQWGLWRDHTQCENPEKNEAFLDQRLILERLQVMYTVGYSLSLATLLLALLILSLFRRLHCTRNYIHINLFTSFMLRAAAILSRDRLLPRPGPYLGDQALALWNQALAACRTAQIVTQYCVGANYTWLLVEGVYLHSLLVLVGGSEEGHFRYYLLLGWGAPALFVIPWVIVRYLYENTQCWERNEVKAIWWIIRTPILMTILINFLIFIRILGILLSKLRTRQMRCRDYPLRLARSTLTLVPLLGVHEVVFAPVTEEQARGALRFAKLGFEIFLSSFQGFLVSVLYCFINKEVQSEIRRGWHHCRLRRSLGEEQRQLPERAFRALPSGSGPGEVPTSRGLSSGTLPGPGNEASRELESYC
AD293 Surface [1, 8]: 0.9922
AD293 Surface ([1]; paired with cAMP 100 pM): 0.9922
Surface SNAP-GIPR expression ([1]; replicate 1): 1.065
Surface SNAP-GIPR expression ([1]; replicate 2): 0.5013
Surface SNAP-GIPR expression ([1]; replicate 3): 1.132
Surface SNAP-GIPR expression ([1]; replicate 4): 0.7089
Surface SNAP-GIPR expression ([1]; replicate 5): 1.372
Surface SNAP-GIPR expression ([1]; replicate 6): 0.9533
Surface SNAP-GIPR expression ([1]; replicate 7): 1.085
Surface SNAP-GIPR expression ([1]; replicate 8): 0.9069
Surface SNAP-GIPR expression ([1]; replicate 9): 0.9059
Surface SNAP-GIPR expression ([1]; replicate 10): 0.7148
Surface SNAP-GIPR expression ([1]; replicate 11): 1.055
Surface SNAP-GIPR expression ([1]; replicate 12): 1.013
Surface SNAP-GIPR expression ([1]; replicate 13): 0.7103
Surface SNAP-GIPR expression ([1]; replicate 14): 1.142
Surface SNAP-GIPR expression ([1]; replicate 15): 0.8074
Surface SNAP-GIPR expression ([1]; replicate 16): 0.9322
Surface SNAP-GIPR expression ([1]; replicate 17): 0.8667
Surface SNAP-GIPR expression ([1]; replicate 18): 1.004
Surface SNAP-GIPR expression ([1]; replicate 19): 0.9824
Surface SNAP-GIPR expression ([1]; replicate 20): 1.058
Surface SNAP-GIPR expression ([1]; replicate 21): 0.9727
Surface SNAP-GIPR expression ([1]; replicate 22): 0.8965
Surface SNAP-GIPR expression ([1]; replicate 23): 0.778
Surface SNAP-GIPR expression ([1]; replicate 24): 0.7544
Surface SNAP-GIPR expression ([1]; replicate 25): 1.062
Surface SNAP-GIPR expression ([1]; replicate 26): 1.025
Surface SNAP-GIPR expression ([1]; replicate 27): 0.9727
Surface SNAP-GIPR expression ([1]; replicate 28): 0.7869
Surface SNAP-GIPR expression ([1]; replicate 29): 1.148
Surface SNAP-GIPR expression ([1]; replicate 30): 1.341
Surface SNAP-GIPR expression ([1]; replicate 31): 1.222
Surface SNAP-GIPR expression ([1]; replicate 32): 1.042
Surface SNAP-GIPR expression ([1]; replicate 33): 1.006
Surface SNAP-GIPR expression ([1]; replicate 34): 0.7344
Surface SNAP-GIPR expression ([1]; replicate 35): 1.077
Surface SNAP-GIPR expression ([1]; replicate 36): 1.167
Surface SNAP-GIPR expression ([1]; replicate 37): 1.212
Surface SNAP-GIPR expression ([1]; replicate 38): 1.22
Surface SNAP-GIPR expression ([1]; replicate 39): 1.259
Surface SNAP-GIPR expression ([1]; replicate 40): 1.054
Surface SNAP-GIPR expression ([1]; replicate 41): 1.032
Surface expression [2]: 0.9442
AD293 100 pM HTRF [3]: 1.285
AD293 100 nM HTRF [3]: 1.143
INS-1 cAMP (100 nM) [4]: 0.7986
AD293 100 pM cADDis [5]: 30.0491
AD293 100 nM cADDis [5]: 33.63
+GIP internalisation (100 nM) [6]: 0.6438
GIP-specific internalisation (100 nM) [6]: 0.1531
Constitutive internalisation (100 nM) [6]: 0.4907
Surface expression [6]: 1.092
Internalisation, +GIP [6]: 55.5681
Internalisation, GIP-only [6]: 13.0056
Internalisation, Vehicle [6]: 42.5625
+GIP internalisation (100 nM) [7]: 0.578
GIP-specific internalisation (100 nM) [7]: 0.1817
Constitutive internalisation (100 nM) [7]: 0.3963
Internalisation, +GIP [7]: 55.395
Internalisation, GIP-only [7]: 16.7483
Internalisation, Vehicle [7]: 38.6467

B2: R404H (protein, UniProt P48546 22-466, looked up, variant R404H)
Gastric inhibitory …: RAETGSKGQTAGELYQRWERYRRECQETLAAAEPPSGLACNGSFDMYVCWDYAAPNATARASCPWYLPWHHHVAAGFVLRQCGSDGQWGLWRDHTQCENPEKNEAFLDQRLILERLQVMYTVGYSLSLATLLLALLILSLFRRLHCTRNYIHINLFTSFMLRAAAILSRDRLLPRPGPYLGDQALALWNQALAACRTAQIVTQYCVGANYTWLLVEGVYLHSLLVLVGGSEEGHFRYYLLLGWGAPALFVIPWVIVRYLYENTQCWERNEVKAIWWIIRTPILMTILINFLIFIRILGILLSKLRTRQMRCRDYRLRLARSTLTLVPLLGVHEVVFAPVTEEQARGALRFAKLGFEIFLSSFQGFLVSVLYCFINKEVQSEIHRGWHHCRLRRSLGEEQRQLPERAFRALPSGSGPGEVPTSRGLSSGTLPGPGNEASRELESYC
AD293 Surface [1, 8]: 0.7424
AD293 Surface ([1]; paired with cAMP 100 pM): 0.7424
Surface SNAP-GIPR expression ([1]; replicate 1): 0.7731
Surface SNAP-GIPR expression ([1]; replicate 2): 0.8601
Surface SNAP-GIPR expression ([1]; replicate 3): 1.364
Surface SNAP-GIPR expression ([1]; replicate 4): 1.202
Surface SNAP-GIPR expression ([1]; replicate 5): 0.6596
Surface SNAP-GIPR expression ([1]; replicate 6): 0.8044
Surface SNAP-GIPR expression ([1]; replicate 7): 1.014
Surface SNAP-GIPR expression ([1]; replicate 8): 0.8566
Surface SNAP-GIPR expression ([1]; replicate 9): 0.836
Surface SNAP-GIPR expression ([1]; replicate 10): 0.8174
Surface SNAP-GIPR expression ([1]; replicate 11): 0.6917
Surface SNAP-GIPR expression ([1]; replicate 12): 0.5756
Surface SNAP-GIPR expression ([1]; replicate 13): 0.812
Surface SNAP-GIPR expression ([1]; replicate 14): 0.5735
Surface SNAP-GIPR expression ([1]; replicate 15): 0.518
Surface SNAP-GIPR expression ([1]; replicate 16): 0.5844
Surface SNAP-GIPR expression ([1]; replicate 17): 0.7582
Surface SNAP-GIPR expression ([1]; replicate 18): 0.6508
Surface SNAP-GIPR expression ([1]; replicate 19): 0.4867
Surface SNAP-GIPR expression ([1]; replicate 20): 0.616
Surface SNAP-GIPR expression ([1]; replicate 21): 0.5336
Surface SNAP-GIPR expression ([1]; replicate 22): 0.6715
Surface SNAP-GIPR expression ([1]; replicate 23): 0.7341
Surface SNAP-GIPR expression ([1]; replicate 24): 0.6837
Surface SNAP-GIPR expression ([1]; replicate 25): 0.9077
Surface SNAP-GIPR expression ([1]; replicate 26): 0.65
Surface SNAP-GIPR expression ([1]; replicate 27): 0.7009
Surface SNAP-GIPR expression ([1]; replicate 28): 0.5824
Surface SNAP-GIPR expression ([1]; replicate 29): 0.9349
Surface SNAP-GIPR expression ([1]; replicate 30): 0.779
Surface SNAP-GIPR expression ([1]; replicate 31): 0.9227
Surface SNAP-GIPR expression ([1]; replicate 32): 0.586
Surface SNAP-GIPR expression ([1]; replicate 33): 0.6419
Surface SNAP-GIPR expression ([1]; replicate 34): 0.7664
Surface SNAP-GIPR expression ([1]; replicate 35): 0.5787
Surface SNAP-GIPR expression ([1]; replicate 36): 0.8557
Surface SNAP-GIPR expression ([1]; replicate 37): 0.7468
Surface SNAP-GIPR expression ([1]; replicate 38): 0.7266
Surface SNAP-GIPR expression ([1]; replicate 39): 0.577
Surface SNAP-GIPR expression ([1]; replicate 40): 0.6491
Surface SNAP-GIPR expression ([1]; replicate 41): 0.7544
Surface expression [2]: 0.8156
AD293 100 pM HTRF [3]: 0.3628
AD293 100 nM HTRF [3]: 1.255
INS-1 cAMP (100 nM) [4]: 0.9867
AD293 100 pM cADDis [5]: 26.6869
AD293 100 nM cADDis [5]: 37.59
+GIP internalisation (100 nM) [6]: 0.4112
GIP-specific internalisation (100 nM) [6]: 0.07509
Constitutive internalisation (100 nM) [6]: 0.3361
Surface expression [6]: 0.7754
Internalisation, +GIP [6]: 56.8624
Internalisation, GIP-only [6]: 10.8785
Internalisation, Vehicle [6]: 45.9839
+GIP internalisation (100 nM) [7]: 0.3918
GIP-specific internalisation (100 nM) [7]: 0.07675
Constitutive internalisation (100 nM) [7]: 0.3151
Internalisation, +GIP [7]: 48.5
Internalisation, GIP-only [7]: 9.682
Internalisation, Vehicle [7]: 38.8183
